This data set deals with dFMRP (dFmr1-PD) (UniProt Q9NFU0 1-684). The data set is described as follows: EMSA.
Chain of dFMRP (dFmr1-PD) (Q9NFU0 whole entry): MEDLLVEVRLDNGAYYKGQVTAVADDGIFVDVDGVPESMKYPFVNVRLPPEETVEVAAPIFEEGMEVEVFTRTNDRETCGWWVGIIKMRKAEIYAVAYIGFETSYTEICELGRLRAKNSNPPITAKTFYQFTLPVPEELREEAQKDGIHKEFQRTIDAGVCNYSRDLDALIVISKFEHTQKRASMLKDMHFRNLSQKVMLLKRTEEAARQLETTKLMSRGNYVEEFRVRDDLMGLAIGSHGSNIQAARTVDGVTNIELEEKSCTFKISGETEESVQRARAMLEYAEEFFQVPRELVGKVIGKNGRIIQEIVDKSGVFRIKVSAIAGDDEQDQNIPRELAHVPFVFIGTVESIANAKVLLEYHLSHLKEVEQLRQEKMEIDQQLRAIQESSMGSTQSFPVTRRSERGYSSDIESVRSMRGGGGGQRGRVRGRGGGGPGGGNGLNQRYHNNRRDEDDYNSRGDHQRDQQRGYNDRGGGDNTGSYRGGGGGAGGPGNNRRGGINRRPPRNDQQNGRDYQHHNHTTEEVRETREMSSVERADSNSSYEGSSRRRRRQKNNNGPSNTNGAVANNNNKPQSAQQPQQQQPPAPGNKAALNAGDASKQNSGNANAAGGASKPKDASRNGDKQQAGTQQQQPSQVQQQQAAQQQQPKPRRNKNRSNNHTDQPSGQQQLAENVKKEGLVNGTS

Take AAAAAAAAAAAAAA (ssRNA) [A14 control RNA]: the binding result is reported as “no binding”.

For the origin of these results see PMC11352701.
